According to PMC6019379, “RecA-like domain 2 of DNA-dependent ATPase A domain, a SWI2/SNF2 protein, mediates conformational integrity and ATP hydrolysis” (Bioscience Reports, 2018):
Positions count from the first letter of the chain named.

Tests used:
Experiment in all cases: intrinsic tryptophan fluorescence titration; no ATP; Fluorescence titration (ex 295 nm, em 340 nm), one-site saturation fit; buffer, salt, pH and temperature not given in the material. Wild-type ADAAD Kd values are cited from ref 24 and not listed
Details in all cases: protein: recombinant; tags: His (Ni-NTA, pET-14b); hairpin
ADAAD R592A = molecular target: T1, ADAAD R592A (Bos taurus (bovine), UniProt Q9TTA5 221-940, R812A)
T1 sequence: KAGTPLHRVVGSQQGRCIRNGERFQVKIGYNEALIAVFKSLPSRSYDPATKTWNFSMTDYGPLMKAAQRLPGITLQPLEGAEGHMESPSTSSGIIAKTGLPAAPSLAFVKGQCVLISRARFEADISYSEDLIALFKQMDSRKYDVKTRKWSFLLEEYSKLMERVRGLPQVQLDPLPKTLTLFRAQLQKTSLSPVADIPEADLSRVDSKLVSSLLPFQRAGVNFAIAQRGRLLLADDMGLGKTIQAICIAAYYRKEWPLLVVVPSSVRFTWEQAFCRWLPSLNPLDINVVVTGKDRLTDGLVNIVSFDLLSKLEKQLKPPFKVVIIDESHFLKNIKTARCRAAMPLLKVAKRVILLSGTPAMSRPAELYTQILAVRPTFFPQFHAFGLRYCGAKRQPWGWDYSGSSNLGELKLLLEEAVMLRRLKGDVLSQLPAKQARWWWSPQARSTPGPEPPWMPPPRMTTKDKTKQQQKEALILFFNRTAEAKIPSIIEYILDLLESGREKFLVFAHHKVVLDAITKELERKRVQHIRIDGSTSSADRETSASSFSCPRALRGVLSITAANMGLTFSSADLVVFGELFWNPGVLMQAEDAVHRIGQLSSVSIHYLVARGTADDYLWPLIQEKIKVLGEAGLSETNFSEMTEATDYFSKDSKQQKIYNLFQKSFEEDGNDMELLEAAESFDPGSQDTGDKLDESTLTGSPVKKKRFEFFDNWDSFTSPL

ADAAD H594A = molecular target: T2, ADAAD H594A (Bos taurus (bovine), UniProt Q9TTA5 221-940, H814A)
T2 sequence: T1 sequence with A592R, H594A

ADAAD F507W = molecular target: T3, ADAAD F507W (Bos taurus (bovine), UniProt Q9TTA5 221-940, F727W)
T3 sequence: T1 sequence with F507W, A592R

GCGCAATTGCGCTCGACGATTTTTTAGCGCAATTGCGC (structured_DNA) [slDNA (stem-loop DNA)]
Kd (ADAAD R592A): 31.5 ± 1.3 nM | Kd (ADAAD H594A): 10.9 ± 2.6 nM | Kd (ADAAD F507W): 44.8 ± 9 nM
